Laboratory results published in patent US20130096276A1.

Target: human immunoglobulin G drug separated from human plasma (Gammagard, Baxter) (human)

C-G29A/D36R.5d (designed binder)
Ka: 3e+08 M⁻¹

C-G29A/K35R/D37E.5d (designed binder)
Ka: 6.5e+07 M⁻¹
